Experimental data published in patent US20250250330A1 (REVOPSIS THERAPEUTICS, published 2025).
“And” between values parts separate entries of the source, which are not always exact repeats. Identical values can stand only once.

Columns and labels:
[1] = biological target: T1, Recombinant human VEGF165 (Peprotech, Cat #100-20) (human, UniProt P15692-4 27-191); experiment: competition ELISA; rhVEGF165 coated, competitor biotinylated rhVEGF R2/KDR
T1 construct: Bought protein; also called rhVEGF165; rh VEGF165
Procedure: The mixture was added to ELISA binding plates which contained rhVEGF₁₆₅ coating. […] The receptor binding was detected by HRP-conjugated streptavidin (Jackson ImmunoResearch Laboratories, Cat #016-030-084) and visualized by TMB substrate.

[2] = biological target: T1, Recombinant human VEGF165 (Peprotech, …); experiment: ELISA on coated human VEGF-A (rhVEGF165)
[3] = biological target: T1, Recombinant human VEGF165 (Peprotech, …); experiment: ELISA; rhVEGF165 coated, anti-human IgG Fc-HRP detection
Source text: The binding was detected by HRP-conjugated donkey anti-human IgG Fcγ antibody (Jackson ImmunoResearch Laboratories, Cat #709-035-098).

[4] = biological target: T2, Recombinant human ANG-2 (R&D Systems, Cat #623-AN-025/CF) (human, UniProt O15123 19-496, limits assumed); experiment: ELISA on rhANG-2 by an independent team; first of three runs by an independent team (average 0.0491 nM)
T2 construct: also called rhANG-2
T2 sequence (looked up): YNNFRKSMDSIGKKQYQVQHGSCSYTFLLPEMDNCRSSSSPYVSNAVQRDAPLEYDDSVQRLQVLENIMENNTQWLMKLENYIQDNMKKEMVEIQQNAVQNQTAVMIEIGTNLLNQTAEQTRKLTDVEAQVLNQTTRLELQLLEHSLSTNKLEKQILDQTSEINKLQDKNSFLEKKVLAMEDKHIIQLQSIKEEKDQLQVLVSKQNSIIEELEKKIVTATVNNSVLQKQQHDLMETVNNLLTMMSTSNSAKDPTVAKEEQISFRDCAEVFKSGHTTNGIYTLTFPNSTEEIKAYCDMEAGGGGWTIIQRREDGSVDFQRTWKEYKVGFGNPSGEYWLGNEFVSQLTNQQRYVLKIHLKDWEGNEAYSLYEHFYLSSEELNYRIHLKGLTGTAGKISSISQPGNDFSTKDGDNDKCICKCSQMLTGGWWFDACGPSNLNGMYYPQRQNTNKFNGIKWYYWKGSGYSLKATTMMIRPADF

[5] = biological target: T3, His-tagged recombinant human ANG-2 (AcroBiosystems, Cat #AN2-H52H4) (human, UniProt O15123 275-496); experiment: ELISA EC50 on rhANG-2, against Faricimab
T3 construct: also called rhANG-2; rhANG-2-His; not shown: His tag
T3 sequence (looked up): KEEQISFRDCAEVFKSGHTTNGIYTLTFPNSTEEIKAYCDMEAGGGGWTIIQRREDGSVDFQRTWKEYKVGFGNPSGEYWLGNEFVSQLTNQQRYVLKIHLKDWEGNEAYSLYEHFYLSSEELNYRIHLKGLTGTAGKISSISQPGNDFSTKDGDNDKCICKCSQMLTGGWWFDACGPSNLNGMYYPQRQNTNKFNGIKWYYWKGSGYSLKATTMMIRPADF
Procedure: Donkey anti-human IgG Fcγ-HRP (Jackson ImmunoResearch Laboratories, Cat #709-035-098) was used for detection and visualized by TMB substrate. OD450 nm readings were measured by Victor 3 with PerkinElmer 1420 Multilabel Counter.

[6] = biological target: T1, Recombinant human VEGF165 (Peprotech, …); experiment: ELISA; target coated at 1 ug/mL, anti-human IgG Fc-HRP detection
Procedure: Different target proteins were used to coat Corning 9017 medium binding plates at 1 μg/mL and 100 μl per well. Donkey anti-human IgG Fcγ-HRP was used for detection. OD450 nm readings were measured by Victor 3.

[7] = biological target: T4, Recombinant human VEGF121 (Peprotech, Cat #100-20A) (human, UniProt P15692-9 27-147); experiment: ELISA; rhVEGF121 coated at 1 ug/mL, anti-human IgG Fc-HRP detection (RO-101_Sample 1)
T4 construct: Bought protein; also called rhVEGF121; rh VEGF121
T4 sequence (looked up): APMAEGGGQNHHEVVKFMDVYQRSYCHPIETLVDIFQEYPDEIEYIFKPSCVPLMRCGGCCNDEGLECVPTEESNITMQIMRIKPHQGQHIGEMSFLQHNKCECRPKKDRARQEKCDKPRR
Procedure: Donkey anti-human IgG Fcγ-HRP (Jackson ImmunoResearch Laboratories, Cat #709-035-098) was used for detection and visualized by TMB substrate. OD450 nm readings were measured by Victor 3 (PerkinElmer 1420 Multilabel Counter).

[8] = biological target: T5, rhPlGF-1 (Peprotech_100-06) (human, UniProt P49763-2 19-149); experiment: ELISA: rhPlGF-1_Peprotech coated at 1 ug/mL, RO-101_Sample 1 from 100 nM in 1:3 dilutions, detected with anti-human IgG Fc-gamma-HRP
T5 construct: Bought protein; also called rhPIGF-1; PIGF-1
T5 sequence (looked up): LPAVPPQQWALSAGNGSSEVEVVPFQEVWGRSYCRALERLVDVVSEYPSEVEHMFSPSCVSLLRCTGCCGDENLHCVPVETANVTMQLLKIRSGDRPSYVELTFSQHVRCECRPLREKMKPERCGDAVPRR
Procedure: Third, the binding to rhPIGF-1 or rhPIGF-3 was tested in comparison with rhVEGF₁₆₅. Target proteins were used to coat Corning 9017 medium binding plates at 1 μg/mL and 100 μl per well. […] Donkey anti-human IgG Fcγ-HRP was used for detection. OD450 nm readings were measured by Victor 3.

[9] = biological target: T4, Recombinant human VEGF121 (Peprotech, …); experiment: ELISA; rhVEGF121 coated, anti-human IgG Fc-HRP detection
Procedure: Donkey anti-human IgG Fcγ-HRP was used for detection (Jackson ImmunoResearch Laboratories, Cat #709-035-098) and visualized by TMB substrate. OD450 nm readings were measured by Victor 3 (PerkinElmer 1420 Multilabel Counter).

IC50 [1]: 1990 pM
EC50 [2]: 17.1 pM
EC50 [3]: 40.1 pM and 55.6 pM and 41.7 pM
EC50 [4]: 52.6 pM
RO-101/Faricimab Fold [5]: 53 fold
EC50 [6]: 12.2 pM
EC50 [7]: 14.6 pM
binding result [8]: no binding (tested: 100 nM (Log(nM) 2))
EC50 [9]: 8.6 pM
B1: RO-101 VEGF/ANG-2 bispecific surrobody (bispecific antibody, human IgG1, L234A L235A)
heavy 1: not shown
heavy 2: EVQLVESGGGLVKPGGSLRLSCAASGFTFSSYGMHWVRQAPGKGLEWVAGISADSGDKNYADSVKGRFTISRDNAKNSLYLQMNSLRAEDTAVYYCAKEFISWIYTFDYLDYWGQGTLVTVSSASTKGPSVFPLAPSSKSTSGGTAALGCLVKDYFPEPVTVSWNSGALTSGVHTFPAVLQSSGLYSLSSVVTVPSSSLGTQTYICNVNHKPSNTKVDKKVEPKSCDKTHTCPPCPAPEAAGGPSVFLFPPKPKDTLMISRTPEVTCVVVDVSHEDPEVKFNWYVDGVEVHNAKTKPREEQYNSTYRVVSVLTVLHQDWLNGKEYKCKVSNKALPAPIEKTISKAKGQPREPQVCTLPPSRDELTKNQVSLSCAVKGFYPSDIAVEWESNGQPENNYKTTPPVLDSDGSFFLVSKLTVDKSRWQQGNVFSCSVMHEALHNHYTQKSLSLSPG
light: QPVLHQPPAMSSALGTTIRLTCTLRNDHDIGVYSVYWYQQRPGHPPRFLLRYFSQSDKSQGPQVPPRFSGSKDVARNRGYLSISELQPEDEAMYYCAMGARSSVTHVFGSGTQLTVLSQPKATPSVTLFPPSSEELQANKATLVCLMNDFYPGILTVTWKADGTPITQGVEMTTPSKQSNNKYAASSYLSLTPEQWRSRRSYSCQVMHEGSTVEKTVAPAECS
notes: Format SgG1; also called Sample 1
